Changes are numbered by the printed parent chain.
B1: Mutation 1-23 (antibody, V domains shown)
VH: EVQLQQPGPELVKPGASVKMSCKASGYTFTSYVIHWVRQKPGQGLEWIGYMNPYNDGLKYNEKFIGKAILTSDKSSSTAYMQLSSLTSEDSAVYYCTKEGLFYVFDYWGQGTSVTVSS
VL: QIVLTQSPAIMSASPGEKVTMTCSATSSLSYMHWYQQKSGTSPKRWIYDSSKLASGVPVRFSGSGSGTSYSLTISSMEAEDAATYFCQQWRSDLPTFGAGTKLELKR
B2: Mutation 1-24 (antibody, V domains shown)
VH: B1 VH with Y32T, L58I, K98R, F105M
VL: B1 VL with L29V, S50T, Q89Y
B3: Mutation 1-25 (antibody, V domains shown)
VH: B1 VH with Y32S, K98R
VL: B1 VL with L29I, Q89W
B4: Mutation 1-26 (antibody, V domains shown)
VH: B1 VH with L58I, K98R, F105M
VL: B1 VL with S50T, Q89W
B5: Mutation 1-27 (antibody, V domains shown)
VH: B1 VH with Y32T, K98R
VL: B1 VL with L29V
B6: Mutation 1-28 (antibody, V domains shown)
VH: B1 VH with Y32S, L58I, F105M
VL: B1 VL with L29V, S50T, Q89Y
B7: Mutation 1-29 (antibody, V domains shown)
VH: B1 VH with L58I, K98R
VL: B1 VL with L29I, Q89W
B8: Mutation 1-30 (antibody, V domains shown)
VH: B1 VH with Y32T, K98R, F105M
VL: B1 VL with S50T, Q89Y
B9: Mutation 1-31 (antibody, V domains shown)
VH: B1 VH with Y32S, L58I, K98R
VL: B1 VL with L29V, Q89W
B10: Mutation 1-32 (antibody, V domains shown)
VH: B1 VH with L58I, F105M
VL: B1 VL with L29V, S50T
B11: Mutation 1-33 (antibody, V domains shown)
VH: B1 VH with Y32T, K98R
VL: B1 VL with L29I, Q89W
B12: Mutation 1-34 (antibody, V domains shown)
VH: B1 VH with Y32S, L58I, K98R
VL: B1 VL with S50T, Q89Y
B13: Mutation 1-35 (antibody, V domains shown)
VH: B1 VH with F105M
VL: B1 VL with L29V, Q89W
B14: Mutation 1-36 (antibody, V domains shown)
VH: B1 VH with Y32T, K98R
VL: B1 VL
B15: Mutation 1-37 (antibody, V domains shown)
VH: B1 VH with Y32S, L58I, K98R
VL: B1 VL with L29V, S50T, Q89Y
B16: Mutation 1-38 (antibody, V domains shown)
VH: B1 VH with F105M
VL: B1 VL with L29I, Q89W
B17: Mutation 1-39 (antibody, V domains shown)
VH: B1 VH with Y32T, L58I, K98R
VL: B1 VL
B18: Mutation 1-40 (antibody, V domains shown)
VH: B1 VH with Y32S
VL: B1 VL with L29V, S50T, Q89Y
B19: Mutation 1-41 (antibody, V domains shown)
VH: B1 VH with L58I, K98R, F105M
VL: B1 VL with L29I, Q89W
B20: Mutation 1-42 (antibody, V domains shown)
VH: B1 VH with Y32T, L58I, K98R
VL: B1 VL with S50T
B21: Mutation 1-43 (antibody, V domains shown)
VH: B1 VH with Y32S, L58I, F105M
VL: B1 VL with S50T, Q89Y
B22: Mutation 1-44 (antibody, V domains shown)
VH: B1 VH with K98R
VL: B1 VL with L29V, Q89Y
B23: Mutation 1-45 (antibody, V domains shown)
VH: B1 VH with Y32T, L58I
VL: B1 VL with Q89W
B24: Mutation 1-46 (antibody, V domains shown)
VH: B1 VH with Y32S, K98R, F105M
VL: B1 VL with L29V, S50T
B25: Mutation 1-47 (antibody, V domains shown)
VH: B1 VH with L58I, K98R
VL: B1 VL with L29I, Q89Y
B26: Mutation 1-48 (antibody, V domains shown)
VH: B1 VH with Y32T, F105M
VL: B1 VL with Q89W
B27: Mutation 1-49 (antibody, V domains shown)
VH: B1 VH with Y32S, L58I, K98R
VL: B1 VL with L29V, S50T
B28: Mutation 1-50 (antibody, V domains shown)
VH: B1 VH
VL: B1 VL with L29I, S50T, Q89Y
B29: Mutation 1-51 (antibody, V domains shown)
VH: B1 VH with Y32T, K98R, F105M
VL: B1 VL with L29I, Q89W
B30: Mutation 1-52 (antibody, V domains shown)
VH: B1 VH with Y32S
VL: B1 VL
B31: Mutation 1-53 (antibody, V domains shown)
VH: B1 VH with L58I, K98R, F105M
VL: B1 VL with L29V, S50T, Q89Y
B32: WT 1-5 (antibody, V domains shown)
VH: B1 VH with F29V, P53A, E62D
VL: B1 VL with A25G, L29V, G56P, Q89W, D93V
B33: WT 1-11 (antibody, V domains shown)
VH: B1 VH with F29V, Y32T, P53A, L58I, E62D, K98R, F105M
VL: B1 VL with A25G, L29I, S50T, G56P, Q89Y, D93V
B34: WT 1-14 (antibody, V domains shown)
VH: B1 VH with F29V, Y32S, P53A, E62D, K98R
VL: B1 VL with A25G, G56P, Q89W, D93V
B35: WT 1-19 (antibody, V domains shown)
VH: B1 VH with F29V, P53A, L58I, E62D, F105M
VL: B1 VL with A25G, L29V, G56P, D93V
B36: Mutation 1-1 (antibody, V domains shown)
VH: B1 VH with Y32S, L58I
VL: B1 VL with Q89W
B37: Mutation 1-2 (antibody, V domains shown)
VH: B1 VH with K98R, F105M
VL: B1 VL with L29V, S50T
B38: Mutation 1-3 (antibody, V domains shown)
VH: B1 VH with Y32T, L58I, K98R
VL: B1 VL with L29I, Q89Y
B39: Mutation 1-4 (antibody, V domains shown)
VH: B1 VH with Y32S, F105M
VL: B1 VL with S50T, Q89W

Target: DN-IV quality control recombinant protein (produced by the company) (dengue virus)
Experiment: BLI, antibody on AMC sensor

| Binder | Kd | koff | kon |
| --- | --- | --- | --- |
| B1 | 3.97 nM | 0.00019 s⁻¹ | 47800 M⁻¹ s⁻¹ |
| B2 | 2.85 nM | 0.000133 s⁻¹ | 46600 M⁻¹ s⁻¹ |
| B3 | 2.92 nM | 0.00014 s⁻¹ | 47900 M⁻¹ s⁻¹ |
| B4 | 3.61 nM | 0.000152 s⁻¹ | 42100 M⁻¹ s⁻¹ |
| B5 | 3.55 nM | 0.000149 s⁻¹ | 42000 M⁻¹ s⁻¹ |
| B6 | 0.591 nM | 0.000259 s⁻¹ | 438000 M⁻¹ s⁻¹ |
| B7 | 0.493 nM | 0.000178 s⁻¹ | 361000 M⁻¹ s⁻¹ |
| B8 | 3.12 nM | 0.000132 s⁻¹ | 42300 M⁻¹ s⁻¹ |
| B9 | 0.579 nM | 0.00023 s⁻¹ | 397000 M⁻¹ s⁻¹ |
| B10 | 0.631 nM | 0.000221 s⁻¹ | 350000 M⁻¹ s⁻¹ |
| B11 | 0.56 nM | 0.000276 s⁻¹ | 493000 M⁻¹ s⁻¹ |
| B12 | 2.89 nM | 0.000112 s⁻¹ | 38700 M⁻¹ s⁻¹ |
| B13 | 0.661 nM | 0.000252 s⁻¹ | 381000 M⁻¹ s⁻¹ |
| B14 | 0.657 nM | 0.000282 s⁻¹ | 429000 M⁻¹ s⁻¹ |
| B15 | 3.63 nM | 0.000145 s⁻¹ | 39900 M⁻¹ s⁻¹ |
| B16 | 0.643 nM | 0.000292 s⁻¹ | 454000 M⁻¹ s⁻¹ |
| B17 | 4.55 nM | 0.000186 s⁻¹ | 40900 M⁻¹ s⁻¹ |
| B18 | 0.671 nM | 0.000261 s⁻¹ | 389000 M⁻¹ s⁻¹ |
| B19 | 0.455 nM | 0.00016 s⁻¹ | 352000 M⁻¹ s⁻¹ |
| B20 | 0.532 nM | 0.000209 s⁻¹ | 393000 M⁻¹ s⁻¹ |

| Binder | Kd | koff | kon |
| --- | --- | --- | --- |
| B21 | 0.624 nM | 0.000256 s⁻¹ | 410000 M⁻¹ s⁻¹ |
| B22 | 2.63 nM | 0.00011 s⁻¹ | 41800 M⁻¹ s⁻¹ |
| B23 | 4.22 nM | 0.000174 s⁻¹ | 41200 M⁻¹ s⁻¹ |
| B24 | 0.569 nM | 0.000222 s⁻¹ | 390000 M⁻¹ s⁻¹ |
| B25 | 0.57 nM | 0.000211 s⁻¹ | 370000 M⁻¹ s⁻¹ |
| B26 | 0.665 nM | 0.000248 s⁻¹ | 373000 M⁻¹ s⁻¹ |
| B27 | 0.765 nM | 0.000299 s⁻¹ | 391000 M⁻¹ s⁻¹ |
| B28 | 3.79 nM | 0.000167 s⁻¹ | 44100 M⁻¹ s⁻¹ |
| B29 | 0.5 nM | 0.000201 s⁻¹ | 402000 M⁻¹ s⁻¹ |
| B30 | 3.02 nM | 0.000124 s⁻¹ | 41000 M⁻¹ s⁻¹ |
| B31 | 2.71 nM | 0.000115 s⁻¹ | 42500 M⁻¹ s⁻¹ |
| B32 | 57.8 nM | 0.000264 s⁻¹ | 4570 M⁻¹ s⁻¹ |
| B33 | 57.1 nM | 0.000244 s⁻¹ | 4270 M⁻¹ s⁻¹ |
| B34 | 45.6 nM | 0.000188 s⁻¹ | 4120 M⁻¹ s⁻¹ |
| B35 | 35.4 nM | 0.000162 s⁻¹ | 4570 M⁻¹ s⁻¹ |
| B36 | 0.445 nM | 0.000181 s⁻¹ | 407000 M⁻¹ s⁻¹ |
| B37 | 2.79 nM | 0.000116 s⁻¹ | 41600 M⁻¹ s⁻¹ |
| B38 | 2.9 nM | 0.000119 s⁻¹ | 41100 M⁻¹ s⁻¹ |
| B39 | 0.478 nM | 0.000234 s⁻¹ | 490000 M⁻¹ s⁻¹ |

Source: patent US20210324054A1
